For data set [1], the target named is CrtJ (R. capsulatus) (UniProt P26167). Briefly: MST.
The target is the same in data set [2]. The data set is described as follows: SEC. Background: Size exclusion chromatography separates by hydrodynamic size, large species first.
The data set “SEC” deals with the molecule itself. The data set is described as follows: SEC.

Data on two molecules can be found in PMC3946051 (Molecular microbiology, 2014).

AerR:B12 (natural protein) registered an EC50 with CrtJ (R. capsulatus) [1] of 3.3 µM. In the data set with CrtJ (R. capsulatus) [2], this molecule had a stoichiometry N of 1.

B1: CrtJ (natural protein, R. capsulatus, UniProt P26167 1-469, looked up)
chain: MTSDGSFLMRREALQRVSPDLLADIVTSACDIALVVSPGRVVESVMVNPQFGSAERFAAWQGARLSQLFSPESAQKLENRLADGPEPGRSLQLELTHAADAFTLPVRYTITRSGEDGTLLLIGRDMQPLAEVQQQLVKAQLALERDYEAQREIETRYRVLLEAHPAPLLIVSMSTGRIADLNLAAAAMIGATRAELIDAPVGQELDGRRRGEFLENLAKIAGSDPLGAVELTIRRSRRKVTVTATLFRAAGDRLLLCRLGEAEARRTRVDDTVELSERLFLKGIDAMVFLDADGTIRAANDAFLYLTDAGSAALVQGRSFADFLSRGAVDLNVLLDNVKRIGHLRHYVTRLNTDFSGQVTVELSATLFHDRATPTIALVIRDSNLADATRIMPGMASNEGLRNVMQMVGYATLRDIVSETTEIIEKMCIETALELTGNNRVAAAELLSLSRQSLYVKLRKFGLLSKDAE
Turning to B1, in the data set “SEC”, the “stoichiometry N” value came out at 2.

Broadly, the EC50 is the concentration giving half of the maximal effect. What is called stoichiometry N is a count of units in the complex or per binding partner.
